Entries after “also recorded” stand apart in the source; their conditions may differ.
What was measured:
Assay type in all cases: cell-based, human
[1] = system: IL-8 protein in WISH cell culture media; experiment: rhPBEF treatment of WISH cells, IL-8 protein in media by ELISA; settings: rhPBEF 10 ng/ml, 4 h
Experimental: The amnion-like epithelial (WISH) cells were obtained from American Type Culture Collection (ATCC# CCL-25) (ATCC, Manassas, Va.). WISH cells were cultured in Dulbecco's Modified Eagle Medium:Ham F-12 (DMEM:F12) (1:1) supplemented with 10% fetal bovine serum (FBS) (Life Technologies, Grand Island, N.Y.), penicillin (50 U/ml)-streptomycin (50 μg/ml) and incubated at 37° C. in 5% CO2/95% air. After reaching confluency, the cells were trypsinized and plated into 6-well culture dishes at a density of 1×10^5 cells in 4 ml media. After 48 h or when the cells reached 80% confluency, the growth medium was replaced with minimal media (0.5% FBS and 0.2% lactalbumin in DMEM:F12) and incubated for 12 h. Treatment of the cells began with addition of rhPBEF prepared in minimal media. The concentration of rhPBEF was determined using the BioRad protein assay and 1, 10 and 100 ng/ml was added to the cells for 4 and 24 h. […]
The IL-8 enzyme-linked immunosorbent assay (ELISA) kit was purchased from R&D Systems (Minneapolis, Minn.) and used to determine the IL-8 protein concentration in the culture supernatants following the manufacturer's protocol. […] The basal levels of IL-6 protein in conditioned media of WISH cells were reported to be at the limit of sensitivity of ELISA (see Keelan et al., supra) and could not be considered reliable, therefore the levels of IL-6 protein were not measured.

[2] = system: IL-6 gene expression in fetal membrane explants; experiment: rhPBEF treatment of fetal membrane explants, IL-6 gene expression by Northern analysis; settings: rhPBEF 100 ng/ml, 4 h, vs control
Text: (§1) elective term Cesarean section without labor (n=7). For the Northern analysis of IL-6 and IL-8 gene expression after rhPBEF treatment, fetal membranes from elective term Cesarean sections before labor (37-40 weeks gestation, n=6) were collected and cut into 3×3 cm explants. None of the preterm or term patients or tissues had any clinical or histological signs of chorioamnionitis. The placentas and membranes were examined by a pathologist for histological evidence of infection using the criteria of Naeye (see Naeye R I. “Disorders of the placenta, fetus and neonate: diagnosis and clinical significance.” St Louis: C U Mosby; 1992. p.258) and all tissues with any sign of infection were excluded from this study.
Total RNA was extracted (see Chomzynski and Sacchi, supra) and MRNA prepared as previously described (see Aviv and Leder, supra). Samples of MRNA (10-20 μg) were electrophoresed, and the RNA transferred to a nylon membrane (Magna Graph, MSI, Westborough, Mass.) as previously described (see Ognjanovic et al., supra). The cDNA probes were labeled using the Random Primed DNA labeling kit and following the manufacturer's instructions (Invitrogen, Carlsbad, Calif.). […] The Northern blot was quantitated with a Phospholmager (Amersham Pharmacia Biotech, Piscataway, N.Y.), using the G3PDH value for each sample to standardize sample loading. Results were expressed as a ratio to G3PDH. […]

[3] = system: IL-6 gene expression in amniotic epithelial (WISH) cells; experiment: rhPBEF treatment of WISH cells, IL-6 gene expression by Northern analysis; settings: for increase in IL-6 gene expression: 4 h, vs control
Experimental: (§2) Total RNA was extracted (see Chomzynski and Sacchi, supra) and MRNA prepared as previously described (see Aviv and Leder, supra). Samples of MRNA (10-20 μg) were electrophoresed, and the RNA transferred to a nylon membrane (Magna Graph, MSI, Westborough, Mass.) as previously described (see Ognjanovic et al., supra). The cDNA probes were labeled using the Random Primed DNA labeling kit and following the manufacturer's instructions (Invitrogen, Carlsbad, Calif.). The filters were hybridized at 68° C. for 1 h using Express Hyb solution (Clontech, Palo Alto, Calif., USA). A final wash stringency of 0.1×SSC, 0.1% SDS was performed at 50° C. Filters were deprobed in 0.5% SDS for 10 min at 100° C. and re-hybridized sequentially with cDNA probes to PBEF, IL-6 and IL-8 and finally with a human glyceraldehyde-3 phosphate dehydrogenase (G3PDH) cDNA probe (Clontech), as an internal standard. The Northern blot was quantitated with a Phospholmager (Amersham Pharmacia Biotech, Piscataway, N.Y.), using the G3PDH value for each sample to standardize sample loading. Results were expressed as a ratio to G3PDH. Statistical analysis was performed using the Tukey-Kramer multiple comparison test.
The amnion-like epithelial (WISH) cells were obtained from American Type Culture Collection (ATCC# CCL-25) (ATCC, Manassas, Va.). WISH cells were cultured in Dulbecco's Modified Eagle Medium:Ham F-12 (DMEM:F12) (1:1) supplemented with 10% fetal bovine serum (FBS) (Life Technologies, Grand Island, N.Y.), penicillin (50 U/ml)-streptomycin (50 μg/ml) and incubated at 37° C. in 5% CO2/95% air. After reaching confluency, the cells were trypsinized and plated into 6-well culture dishes at a density of 1×10^5 cells in 4 ml media. After 48 h or when the cells reached 80% confluency, the growth medium was replaced with minimal media (0.5% FBS and 0.2% lactalbumin in DMEM:F12) and incubated for 12 h. Treatment of the cells began with addition of rhPBEF prepared in minimal media. The concentration of rhPBEF was determined using the BioRad protein assay and 1, 10 and 100 ng/ml was added to the cells for 4 and 24 h. Treatment was carried out in triplicate and each experiment was performed at least three times on different occasions. Controls received minimal media containing 0.5% bovine serum albumin (15 μl) in phosphate buffer saline (PBS). […]
In addition to fetal membrane explants, the amniotic epithelial cell line, WISH cells, were also used to study the effects of PBEF on the expression of IL-6 and IL-8. The expression of the IL-6 and IL-8 genes were quantitated by Northern blotting using total RNA isolated from the cells and calculated as the degree of upregulation (fold) compared to the respective control at each time (see FIGS. 4A-4C). […]

[4] = system: key mediators of labor in fetal membrane explants; experiment: rhPBEF treatment of fetal membrane explants, gene chip analysis (Affymetrix); settings: rhPBEF 100 ng/ml, 4 hours
Experimental: Fetal membranes from three patients were cut into several 3×3 cm explants. One explant was used to check for infection. Another explant was treated with 100 ng/ml rhPBEF in minimal media for 4 hours, an adjacent explant was used as a control and was incubated in minimal media only for the same period. At the end of this time, total RNA was extracted using the RNeasy Maxi kit (Qiagen Inc., Valencia, Calif.). These RNAs were run in pairs (explants treated and controls from each of the patients), were reverse-transcribed and the resulting cDNAs/cRNAs labeled with tracking fluorescent dyes and hybridized to DNA microchips (Affymetrix Inc.) containing 22,000 gene transcripts. The binding of the fluorescent fragments was proportional to the abundance of the gene in the original samples. Therefore changes in gene expression result in signal differences. […] The Affymetrix system has numerous controls built into the methodology in order to minimize false positive results.

[5] = system: IL-8 gene expression in fetal membrane explants; experiment: rhPBEF treatment of fetal membrane explants, IL-8 gene expression by Northern analysis; settings: rhPBEF 100 ng/ml, 4 h, vs control
Text: as §1, §2
Each fetal membrane was cut into several 3×3 cm explants. […]

[6] = system: IL-8 gene expression in amniotic epithelial (WISH) cells; experiment: rhPBEF treatment of WISH cells, IL-8 gene expression by Northern analysis; settings: rhPBEF 100 ng/ml, 4 h
Experimental: as §2, with “Statistical analysis was performed using the Tukey-Kramer multiple comparison test.” left out
The amnion-like epithelial (WISH) cells were obtained from American Type Culture Collection (ATCC# CCL-25) (ATCC, Manassas, Va.). […] The concentration of rhPBEF was determined using the BioRad protein assay and 1, 10 and 100 ng/ml was added to the cells for 4 and 24 h. […]

B1: rhPBEF: recombinant human pre-B cell colony-enhancing factor produced in a bacterial system using pTrcHis2 vector (protein)
chain: MNPAAEAEFNILLATDSYKVTHYKQYPPNTSKVYSYFECREKKTENSKLRKVKYEETVFYGLQYILNKYLKGKVVTKEKIQEAKDVYKEHFQDDVFNEKGWNYILEKYDGHLPIEIKAVPEGFVIPRGNVLFTVENTDPECYWLTNWIETILVQSWYPITVATNSREQKKILAKYLLETSGNLDGLEYKLHDFGYRGVSSQETAGIGASAHLVNFKGTDTVAGLALIKKYYGTKDPVPGYSVPAAEHSTITAWGKDHEKDAFEHIVTQFSSVPVSVVSDSYDIYNACEKIWGEDLRHLIVSRSTQAPLIIRPDSGNPLDTVLKVLEILGKKFPVTENSKGYKLLPPYLRVIQGDGVDINTLQEIVEGMKQKMWSIENIAFGSGGGLLQKLTRDLLNCSFKCSYVVTNGLGINVFKDPVADPNKRSKKGRLSLHRTPAGNFVTLEEGKGDLEEYGQDLLHTVFKNGKVTKSYSFDEIRKNAQLNIELEAAHH
increase in secreted IL-8 (ELISA) [1]: 15%
upregulation of IL-6 gene expression [2]: 40%
increase in IL-6 gene expression ([3]; rhPBEF 1 ng/ml): 15%
increase in IL-6 gene expression ([3]; rhPBEF 10 ng/ml): 29%
increase in IL-6 gene expression ([3]; rhPBEF 100 ng/ml): 44%
IL-6 gene expression, dose dependence ([3]; rhPBEF 1, 10 and 100 ng/ml, 4h): dose-dependent increase
COX-2 gene expression [4]: stimulates; also recorded: significantly upregulated
GRO-γ gene expression [4]: significantly upregulated
IL-1β gene expression [4]: stimulates; also recorded: significantly upregulated
IL-6 gene expression [4]: stimulates; also recorded: significantly upregulated
MIP-1α gene expression [4]: significantly upregulated
MIP-1β gene expression [4]: significantly upregulated
TNF-α gene expression [4]: stimulates; also recorded: significantly upregulated
upregulation of IL-8 gene expression [5]: 120%
upregulation of IL-8 gene expression ([5]; listed as PBEF): 120%
upregulation of IL-8 gene expression ([5]; listed as RhPBEF): significant (p<0.05) increase
increase in IL-8 gene expression [6]: absent
